B1: 抗ヒトFasヒト化抗体 [B] (expression product of pHμM1-1 and pHκKY2-58 in COS-7 cells; HμM heavy chain + VL-KY light chain) (antibody)
heavy: EVQLVQSGAEVKKPGASVKVSCKASGYTFTDYNMHWVKQAHGKSLEWMGYIYPYNGGTGYNQKFKSKATLTVDNSASTAYMELSSLRSEDTAVYYCARSYYAMDYWGQGTLVTVSSGSASAPTLFPLVSCENSPSDTSSVAVGCLAQDFLPDSITFSWKYKNNSDISSTRGFPSVLRGGKYAATSQVLLPSKDVMQGTDEHVVCKVQHPNGNKEKNVPLPVIAELPPKVSVFVPPRDGFFGNPRKSKLICQATGFSPRQIQVSWLREGKQVGSGVTTDQVQAEAKESGPTTYKVTSTLTIKESDWLSQSMFTCRVDHRGLTFQQNASSMCVPDQDTAIRVFAIPPSFASIFLTKSTKLTCLVTDLTTYDSVTISWTRQNGEAVKTHTNISESHPNATFSAVGEASICEDDWNSGERFTCTVTHTDLPSPLKQTISRPKGVALHRPDVYLLPPAREQLNLRESATITCLVTGFSPADVFVQWMQRGQPLSPEKYVTSAPMPEPQAPGRYFAHSILTVSEEEWNTGETYICVVAHEALPNRVTERTVDKSTGKPTLYNVSLVMSDTAGTCY
light: DVVMTQSPLSLPVTLGQPASISCRSSKSLVHSNGNTYLHWYLQKPGQSPKLLIYKVSNRFSGVPDRFSGSGSGTDFTLKISRVEAEDVGVYYCSQSTHVPPAFGQGTKVEIKRTVAAPSVFIFPPSDEQLKSGTASVVCLLNNFYPREAKVQWKVDNALQSGNSQESVTEQDSKDSTYSLSSTLTLSKADYEKHKVYACEVTHQGLSSPVTKSFNRGEC
B2: 抗ヒトFasヒト化抗体 [D] (expression product of pHμM1-1 and pHκRY2-10 in COS-7 cells; HμM heavy chain + VL-RY light chain) (antibody)
heavy: EVQLVQSGAEVKKPGASVKVSCKASGYTFTDYNMHWVKQAHGKSLEWMGYIYPYNGGTGYNQKFKSKATLTVDNSASTAYMELSSLRSEDTAVYYCARSYYAMDYWGQGTLVTVSSGSASAPTLFPLVSCENSPSDTSSVAVGCLAQDFLPDSITFSWKYKNNSDISSTRGFPSVLRGGKYAATSQVLLPSKDVMQGTDEHVVCKVQHPNGNKEKNVPLPVIAELPPKVSVFVPPRDGFFGNPRKSKLICQATGFSPRQIQVSWLREGKQVGSGVTTDQVQAEAKESGPTTYKVTSTLTIKESDWLSQSMFTCRVDHRGLTFQQNASSMCVPDQDTAIRVFAIPPSFASIFLTKSTKLTCLVTDLTTYDSVTISWTRQNGEAVKTHTNISESHPNATFSAVGEASICEDDWNSGERFTCTVTHTDLPSPLKQTISRPKGVALHRPDVYLLPPAREQLNLRESATITCLVTGFSPADVFVQWMQRGQPLSPEKYVTSAPMPEPQAPGRYFAHSILTVSEEEWNTGETYICVVAHEALPNRVTERTVDKSTGKPTLYNVSLVMSDTAGTCY
light: DVVMTQSPLSLPVTLGQPASISCRSSKSLVHSNGNTYLHWYLQKPGQSPRLLIYKVSNRFSGVPDRFSGSGSGTDFTLKISRVEAEDVGVYYCSQSTHVPPAFGQGTKVEIKRTVAAPSVFIFPPSDEQLKSGTASVVCLLNNFYPREAKVQWKVDNALQSGNSQESVTEQDSKDSTYSLSSTLTLSKADYEKHKVYACEVTHQGLSSPVTKSFNRGEC
B3: 抗ヒトFasヒト化抗体 [E] (expression product of pHμM1-1 and pHκRF2-52 in COS-7 cells; HμM heavy chain + VL-RF light chain) (antibody)
heavy: EVQLVQSGAEVKKPGASVKVSCKASGYTFTDYNMHWVKQAHGKSLEWMGYIYPYNGGTGYNQKFKSKATLTVDNSASTAYMELSSLRSEDTAVYYCARSYYAMDYWGQGTLVTVSSGSASAPTLFPLVSCENSPSDTSSVAVGCLAQDFLPDSITFSWKYKNNSDISSTRGFPSVLRGGKYAATSQVLLPSKDVMQGTDEHVVCKVQHPNGNKEKNVPLPVIAELPPKVSVFVPPRDGFFGNPRKSKLICQATGFSPRQIQVSWLREGKQVGSGVTTDQVQAEAKESGPTTYKVTSTLTIKESDWLSQSMFTCRVDHRGLTFQQNASSMCVPDQDTAIRVFAIPPSFASIFLTKSTKLTCLVTDLTTYDSVTISWTRQNGEAVKTHTNISESHPNATFSAVGEASICEDDWNSGERFTCTVTHTDLPSPLKQTISRPKGVALHRPDVYLLPPAREQLNLRESATITCLVTGFSPADVFVQWMQRGQPLSPEKYVTSAPMPEPQAPGRYFAHSILTVSEEEWNTGETYICVVAHEALPNRVTERTVDKSTGKPTLYNVSLVMSDTAGTCY
light: DVVMTQSPLSLPVTLGQPASISCRSSKSLVHSNGNTYLHWYLQKPGQSPRLLIYKVSNRFSGVPDRFSGSGSGTDFTLKISRVEAEDVGVYFCSQSTHVPPAFGQGTKVEIKRTVAAPSVFIFPPSDEQLKSGTASVVCLLNNFYPREAKVQWKVDNALQSGNSQESVTEQDSKDSTYSLSSTLTLSKADYEKHKVYACEVTHQGLSSPVTKSFNRGEC
B4: 抗ヒトFasヒト化抗体 [I] (expression product of pHμH5-1 and pHκRF2-52 in COS-7 cells; HμH heavy chain + VL-RF light chain) (antibody)
heavy: EVQLVQSGAEVKKPGASVKVSCKASGYTFTDYNMHWVRQAPGQGLEWMGYIYPYNGGTGYNQKFKSKATLTVDNSASTAYMELSSLRSEDTAVYYCARSYYAMDYWGQGTLVTVSSGSASAPTLFPLVSCENSPSDTSSVAVGCLAQDFLPDSITFSWKYKNNSDISSTRGFPSVLRGGKYAATSQVLLPSKDVMQGTDEHVVCKVQHPNGNKEKNVPLPVIAELPPKVSVFVPPRDGFFGNPRKSKLICQATGFSPRQIQVSWLREGKQVGSGVTTDQVQAEAKESGPTTYKVTSTLTIKESDWLSQSMFTCRVDHRGLTFQQNASSMCVPDQDTAIRVFAIPPSFASIFLTKSTKLTCLVTDLTTYDSVTISWTRQNGEAVKTHTNISESHPNATFSAVGEASICEDDWNSGERFTCTVTHTDLPSPLKQTISRPKGVALHRPDVYLLPPAREQLNLRESATITCLVTGFSPADVFVQWMQRGQPLSPEKYVTSAPMPEPQAPGRYFAHSILTVSEEEWNTGETYICVVAHEALPNRVTERTVDKSTGKPTLYNVSLVMSDTAGTCY
light: DVVMTQSPLSLPVTLGQPASISCRSSKSLVHSNGNTYLHWYLQKPGQSPRLLIYKVSNRFSGVPDRFSGSGSGTDFTLKISRVEAEDVGVYFCSQSTHVPPAFGQGTKVEIKRTVAAPSVFIFPPSDEQLKSGTASVVCLLNNFYPREAKVQWKVDNALQSGNSQESVTEQDSKDSTYSLSSTLTLSKADYEKHKVYACEVTHQGLSSPVTKSFNRGEC
B5: 抗ヒトFasヒト化抗体 [C] (expression product of pHμM1-1 and pHκKF2-19 in COS-7 cells; HμM heavy chain + VL-KF light chain) (antibody)
heavy: EVQLVQSGAEVKKPGASVKVSCKASGYTFTDYNMHWVKQAHGKSLEWMGYIYPYNGGTGYNQKFKSKATLTVDNSASTAYMELSSLRSEDTAVYYCARSYYAMDYWGQGTLVTVSSGSASAPTLFPLVSCENSPSDTSSVAVGCLAQDFLPDSITFSWKYKNNSDISSTRGFPSVLRGGKYAATSQVLLPSKDVMQGTDEHVVCKVQHPNGNKEKNVPLPVIAELPPKVSVFVPPRDGFFGNPRKSKLICQATGFSPRQIQVSWLREGKQVGSGVTTDQVQAEAKESGPTTYKVTSTLTIKESDWLSQSMFTCRVDHRGLTFQQNASSMCVPDQDTAIRVFAIPPSFASIFLTKSTKLTCLVTDLTTYDSVTISWTRQNGEAVKTHTNISESHPNATFSAVGEASICEDDWNSGERFTCTVTHTDLPSPLKQTISRPKGVALHRPDVYLLPPAREQLNLRESATITCLVTGFSPADVFVQWMQRGQPLSPEKYVTSAPMPEPQAPGRYFAHSILTVSEEEWNTGETYICVVAHEALPNRVTERTVDKSTGKPTLYNVSLVMSDTAGTCY
light: DVVMTQSPLSLPVTLGQPASISCRSSKSLVHSNGNTYLHWYLQKPGQSPKLLIYKVSNRFSGVPDRFSGSGSGTDFTLKISRVEAEDVGVYFCSQSTHVPPAFGQGTKVEIKRTVAAPSVFIFPPSDEQLKSGTASVVCLLNNFYPREAKVQWKVDNALQSGNSQESVTEQDSKDSTYSLSSTLTLSKADYEKHKVYACEVTHQGLSSPVTKSFNRGEC
B6: 抗ヒトFasヒト化抗体 [G] (expression product of pHμH5-1 and pHκKF2-19 in COS-7 cells; HμH heavy chain + VL-KF light chain) (antibody)
heavy: EVQLVQSGAEVKKPGASVKVSCKASGYTFTDYNMHWVRQAPGQGLEWMGYIYPYNGGTGYNQKFKSKATLTVDNSASTAYMELSSLRSEDTAVYYCARSYYAMDYWGQGTLVTVSSGSASAPTLFPLVSCENSPSDTSSVAVGCLAQDFLPDSITFSWKYKNNSDISSTRGFPSVLRGGKYAATSQVLLPSKDVMQGTDEHVVCKVQHPNGNKEKNVPLPVIAELPPKVSVFVPPRDGFFGNPRKSKLICQATGFSPRQIQVSWLREGKQVGSGVTTDQVQAEAKESGPTTYKVTSTLTIKESDWLSQSMFTCRVDHRGLTFQQNASSMCVPDQDTAIRVFAIPPSFASIFLTKSTKLTCLVTDLTTYDSVTISWTRQNGEAVKTHTNISESHPNATFSAVGEASICEDDWNSGERFTCTVTHTDLPSPLKQTISRPKGVALHRPDVYLLPPAREQLNLRESATITCLVTGFSPADVFVQWMQRGQPLSPEKYVTSAPMPEPQAPGRYFAHSILTVSEEEWNTGETYICVVAHEALPNRVTERTVDKSTGKPTLYNVSLVMSDTAGTCY
light: DVVMTQSPLSLPVTLGQPASISCRSSKSLVHSNGNTYLHWYLQKPGQSPKLLIYKVSNRFSGVPDRFSGSGSGTDFTLKISRVEAEDVGVYFCSQSTHVPPAFGQGTKVEIKRTVAAPSVFIFPPSDEQLKSGTASVVCLLNNFYPREAKVQWKVDNALQSGNSQESVTEQDSKDSTYSLSSTLTLSKADYEKHKVYACEVTHQGLSSPVTKSFNRGEC
B7: マウス抗ヒトFas抗体CH11(MBL社) (antibody, mouse IgM)
heavy: EVQLQQSGPELVKPGASVKISCKASGYTFTDYNMHWVKQSHGKSLEWIGYIYPYNGGTGYNQKFKSKATLTVDNSSSTAYMELRSLTSEDSAVYYCARSYYAMDYWGQGTSVTVSSESQSFPNVFPLVSCESPLSDKNLVAMGCLARDFLPSTISFTWNYQNNTEVIQGIRTFPTLRTGGKYLATSQVLLSPKSILEGSDEYLVCKIHYGGKNRDLHVPIPAVAEMNPNVNVFVPPRDGFSGPAPRKSKLICEATNFTPKPITVSWLKDGKLVESGFTTDPVTIENKGSTPQTYKVISTLTISEIDWLNLNVYTCRVDHRGLTFLKNVSSTCAASPSTDILTFTIPPSFADIFLSKSANLTCLVSNLATYETLNISWASQSGEPLETKIKIMESHPNGTFSAKGVASVCVEDWNNRKEFVCTVTHRDLPSPQKKFISKPNEVHKHPPAVYLLPPAREQLNLRESATVTCLVKGFSPADISVQWLQRGQLLPQEKYVTSAPMPEPGAPGFYFTHSILTVTEEEWNSGETYTCVVGHEALPHLVTERTVDKSTGKPTLYNVSLIMSDTGGTCY
light: DVVMTQSPLSLPVSLGDQASISCRSSKSLVHSNGNTYLHWYLQKPGQSPKLLIYKVSNRFSGVPDRFSGSGSGTDFTLKISRVEAEDLGVYFCSQSTHVPPAFGGGTKLEIKRADAAPTVSIFPPSSEQLTSGGASVVCFLNNFYPKDINVKWKIDGSERQNGVLNSWTDQDSKDSTYSMSSTLTLTKDEYERHNSYTCEATHKTSTSPIVKSFNRNEC
chain: DDEATILADNKCMCTRVTSRIIPSTEDPNEDIVERNIRIVVPLNNRENISDPTSPLRRNFVYHLSDVCKKCDPVEVELEDQVVTATQSNICNEDDGVPETCYMYDRNKCYTTMVPLRYHGETKMVQAALTPDSCYPD

Each binder was assayed against T1, ヒトFas抗原 on human lymphocyte cell line HPB-ALL (human, UniProt P25445 26-335) (assay: cell-based or functional assay).
T1 sequence (looked up): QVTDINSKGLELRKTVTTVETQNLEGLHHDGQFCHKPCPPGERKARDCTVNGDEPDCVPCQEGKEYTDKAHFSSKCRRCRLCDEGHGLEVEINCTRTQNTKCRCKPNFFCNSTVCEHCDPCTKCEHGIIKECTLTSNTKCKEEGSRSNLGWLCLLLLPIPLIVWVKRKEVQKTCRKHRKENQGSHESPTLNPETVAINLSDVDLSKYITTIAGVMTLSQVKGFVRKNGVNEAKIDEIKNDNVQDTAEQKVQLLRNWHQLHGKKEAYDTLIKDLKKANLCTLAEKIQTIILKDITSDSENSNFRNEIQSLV

Point of comparison: B3, “ED 50 (IgM concentration at which HPB-ALL cell survival is 50%), 細胞障害活性” value 1.5 ng/mL. Against it:
- B1 — within 1.5-fold, 1.1 ng/mL
- B2 — within 1.5-fold, 1.7 ng/mL
- B4 — 2.3-fold higher, 3.4 ng/mL
- B5 — 1.5-fold lower, 1 ng/mL
- B6 — 1.6-fold higher, 2.4 ng/mL
- B7 — 7.1-fold higher, 10.7 ng/mL
